# In US20260209352A1 (Adimab, published 2026):
# Substitutions are numbered along the chain they refer to.
# B1: ADI-46356 (antibody, V domains shown)
# VH: QVQLVQSGAEVKKPGASVKVSCKASGFNIKDYYMHWVRQAPGQRLEWIGWIDLENANTVYDAKFQGRVTITRDTSASTAYMELSSLRSEDTAVYYCARDAYGRYFYDVWGQGTLVTVSS
# VL: DIVMTQSPDSLAVSLGERATINCKSSQSLLNARTGKNYLAWYQQKPGQPPKLLIYWASTRESGVPDRFSGSGSGTDFTLTISSLQAEDVAVYYCVQSYFRRTFGGGTKVEIK
# B2: ADI-45965 (antibody, V domains shown)
# VH: B1 VH with T58A
# VL: B1 VL with E17G
# notes: also called Ab28
# B3: ADI-45964 (antibody, V domains shown)
# VH: B1 VH with M34I
# VL: B1 VL with V95A
# notes: also called Ab27
# B4: ADI-46370 (antibody, V domains shown)
# VH: B1 VH with A62H
# VL: B1 VL
# notes: also called Ab34
# B5: ADI-45966 (antibody, V domains shown)
# VH: B1 VH with T69A
# VL: B1 VL with V95T
# notes: also called Ab29
# B6: ADI-46364 (antibody, V domains shown)
# VH: B1 VH with F64L, R87G
# VL: B1 VL
# notes: also called Ab48
# B7: ADI-45963 (antibody, V domains shown)
# VH: B1 VH with S17P
# VL: B1 VL with V95K
# notes: also called Ab26
# B8: ADI-46360 (antibody, V domains shown)
# VH: B1 VH with L45P, T91A, V93A
# VL: B1 VL with K51E, V95T
# notes: also called Ab44
# B9: ADI-46367 (antibody, V domains shown)
# VH: B1 VH with T78I
# VL: B1 VL with V95A
# notes: also called Ab32
# B10: ADI-46358 (antibody, V domains shown)
# VH: B1 VH with S85N
# VL: B1 VL with V95T
# notes: also called Ab31
# B11: ADI-46365 (antibody, V domains shown)
# VH: B1 VH with S77G, Y80H, L114P
# VL: B1 VL with V95T
# notes: also called Ab49
# B12: ADI-46362 (antibody, V domains shown)
# VH: B1 VH with L45P, V93A
# VL: B1 VL
# notes: also called Ab46
# B13: ADI-46369 (antibody, V domains shown)
# VH: B1 VH with V2A, A62T
# VL: B1 VL
# notes: also called Ab33
# B14: ADI-46371 (antibody, V domains shown)
# VH: B1 VH with V2A, L45P, V93A
# VL: B1 VL
# notes: also called Ab35
# B15: ADI-46361 (antibody, V domains shown)
# VH: B1 VH with I29N
# VL: B1 VL with V95T
# notes: also called Ab45
# B16: ADI-45960 (antibody, V domains shown)
# VH: B1 VH
# VL: B1 VL with V89A, V95A
# notes: also called Ab23
# B17: ADI-46381 (antibody, V domains shown)
# VH: B1 VH with A62T
# VL: B1 VL with S25T, S28G, G35N
# notes: also called Ab43
# B18: ADI-46374 (antibody, V domains shown)
# VH: B1 VH with E54N
# VL: B1 VL
# notes: also called Ab37
# B19: ADI-46363 (antibody, V domains shown)
# VH: B1 VH
# VL: B1 VL with V95T
# notes: also called Ab47
# B20: ADI-46376 (antibody, V domains shown)
# VH: B1 VH with F64L, R87G, L114P
# VL: B1 VL with V95T
# notes: also called Ab39
# B21: ADI-46375 (antibody, V domains shown)
# VH: B1 VH
# VL: B1 VL with G35R, V95T
# notes: also called Ab38
# B22: ADI-46372 (antibody, V domains shown)
# VH: B1 VH with S77G, Y80H, L114P
# VL: B1 VL
# notes: also called Ab36
# B23: ADI-46379 (antibody, V domains shown)
# VH: B1 VH with T78A
# VL: B1 VL with T59A, V95T
# notes: also called Ab41
# B24: ADI-45962 (antibody, V domains shown)
# VH: B1 VH with K12E, K13E
# VL: B1 VL
# notes: also called Ab25
# B25: ADI-45961 (antibody, V domains shown)
# VH: B1 VH
# VL: B1 VL with G35R, K36R, A57G, V95K
# notes: also called Ab24
# Biological target: Human CD3εδ-Fc (human) (UniProt P04234)
# Sequence (chain, as listed by the source mutant, chain 1 of 2): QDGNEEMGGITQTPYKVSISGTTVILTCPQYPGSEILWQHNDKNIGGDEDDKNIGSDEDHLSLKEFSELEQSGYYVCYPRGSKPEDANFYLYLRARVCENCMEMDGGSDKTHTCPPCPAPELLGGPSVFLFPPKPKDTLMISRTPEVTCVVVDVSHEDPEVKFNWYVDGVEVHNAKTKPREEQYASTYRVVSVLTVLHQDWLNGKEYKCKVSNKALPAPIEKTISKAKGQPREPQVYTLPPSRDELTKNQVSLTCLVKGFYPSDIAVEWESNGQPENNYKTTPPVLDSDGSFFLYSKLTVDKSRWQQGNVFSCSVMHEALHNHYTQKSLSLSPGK
# Sequence (P04234 22-105, stated change not applied, chain 2 of 2): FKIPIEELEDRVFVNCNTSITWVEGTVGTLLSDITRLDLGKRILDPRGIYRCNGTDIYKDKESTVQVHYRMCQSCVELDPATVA
# Assay: KD of scFv-Fc or IgG on human CD3εδ-Fc; instrument not given
row,Kd [nM],Binder
1,0.98,B1
2,0.065,B2
3,0.097,B3
4,1,B4
5,0.061,B5
6,0.97,B6
7,0.069,B7
8,0.97,B8
9,0.95,B9
10,0.99,B10
11,1,B11
12,0.8,B12
13,0.92,B13
14,0.86,B14
15,0.93,B15
16,0.14,B16
17,0.72,B17
18,0.84,B18
19,0.93,B19
20,1,B20
21,0.86,B21
22,1.1,B22
23,1,B23
24,0.14,B24
25,0.23,B25

# Biological target: T1, Human CD3 on Human CD3+ Jurkat cells (human, UniProt P07766 23-207)
# T1 construct: whole, on cells; CD3 complex on cells; also called hCD3
# T1 sequence (P07766 23-207): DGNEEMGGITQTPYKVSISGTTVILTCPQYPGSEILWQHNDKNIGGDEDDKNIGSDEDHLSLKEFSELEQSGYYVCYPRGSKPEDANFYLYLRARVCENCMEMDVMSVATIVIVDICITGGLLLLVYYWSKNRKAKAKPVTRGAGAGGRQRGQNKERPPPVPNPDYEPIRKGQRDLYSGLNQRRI
# Assay: cell binding hCD3, fold over background
row,Cell Binding hCD3 (FOB),Binder
1,39,B1
2,33,B2
3,56,B3
4,40,B4
5,14,B5
6,33,B6
7,14,B7
8,40,B8
9,8,B9
10,35,B10
11,36,B11
12,7,B12
13,33,B13
14,47,B14
15,23,B15
16,63,B16
17,71,B17
18,37,B18
19,49,B19
20,4,B20
21,48,B21
22,14,B22
23,43,B23
24,18,B24
25,18,B25

# Biological target: Cyno CD3εδ-Fc (cynomolgus) (UniProt Q95LI8)
# Sequence (chain, as listed by the source mutant, chain 1 of 2): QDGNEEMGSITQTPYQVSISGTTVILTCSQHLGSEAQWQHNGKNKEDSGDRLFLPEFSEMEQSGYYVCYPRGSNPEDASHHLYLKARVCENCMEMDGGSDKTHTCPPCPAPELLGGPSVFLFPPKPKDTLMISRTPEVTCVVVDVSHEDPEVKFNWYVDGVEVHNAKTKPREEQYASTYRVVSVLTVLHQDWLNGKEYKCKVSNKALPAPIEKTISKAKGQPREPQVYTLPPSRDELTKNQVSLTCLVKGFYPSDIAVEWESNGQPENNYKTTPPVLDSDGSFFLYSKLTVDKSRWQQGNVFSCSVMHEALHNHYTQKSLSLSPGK
# Sequence (Q95LI8 22-105, stated change not applied, chain 2 of 2): as the sequence (P04234 22-105, stated change not applied, chain 2 of 2) above, with I5V, N15K, I20V, S32T, D33N, I34N, T64A, S74N, V83L counted along it
# Assay: KD of scFv-Fc or IgG on cyno CD3εδ-Fc; instrument not given
row,Kd [nM],Binder
1,1.4,B2
2,2,B3
3,1.2,B5
4,2.1,B7
5,1.8,B16
6,1.4,B24
7,3,B25

# Biological target: T2, Cynomolgus CD3 on Cyno CD3+ Jurkat cells (cynomolgus, UniProt Q95LI5 22-198)
# T2 construct: whole, on cells; CD3 on cells; also called cCD3
# T2 sequence (Q95LI5 22-198): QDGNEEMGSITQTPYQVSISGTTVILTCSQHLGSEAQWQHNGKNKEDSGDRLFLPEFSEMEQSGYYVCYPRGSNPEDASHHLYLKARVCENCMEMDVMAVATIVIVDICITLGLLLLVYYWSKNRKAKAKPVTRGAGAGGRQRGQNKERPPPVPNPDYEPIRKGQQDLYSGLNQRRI
# Assay: cell binding cCD3, fold over background
row,Cell Binding cCD3 (FOB),Binder
1,59,B1
2,124,B2
3,63,B3
4,46,B4
5,27,B5
6,63,B6
7,69,B7
8,106,B8
9,62,B9
10,82,B10
11,84,B11
12,95,B12
13,71,B13
14,121,B14
15,84,B15
16,58,B16
17,174,B17
18,29,B18
19,129,B19
20,96,B20
21,40,B21
22,80,B22
23,105,B23
24,46,B24
25,30,B25
